From patent US20190309079A1 (Regeneron, published 2019)

Assays:
[1] = target: T1, full length human LEPR (amino acids 1-1165 of P48357, Isoform B) on cells (human, UniProt P48357 22-1165); experiment: cell-based or functional assay
T1 sequence: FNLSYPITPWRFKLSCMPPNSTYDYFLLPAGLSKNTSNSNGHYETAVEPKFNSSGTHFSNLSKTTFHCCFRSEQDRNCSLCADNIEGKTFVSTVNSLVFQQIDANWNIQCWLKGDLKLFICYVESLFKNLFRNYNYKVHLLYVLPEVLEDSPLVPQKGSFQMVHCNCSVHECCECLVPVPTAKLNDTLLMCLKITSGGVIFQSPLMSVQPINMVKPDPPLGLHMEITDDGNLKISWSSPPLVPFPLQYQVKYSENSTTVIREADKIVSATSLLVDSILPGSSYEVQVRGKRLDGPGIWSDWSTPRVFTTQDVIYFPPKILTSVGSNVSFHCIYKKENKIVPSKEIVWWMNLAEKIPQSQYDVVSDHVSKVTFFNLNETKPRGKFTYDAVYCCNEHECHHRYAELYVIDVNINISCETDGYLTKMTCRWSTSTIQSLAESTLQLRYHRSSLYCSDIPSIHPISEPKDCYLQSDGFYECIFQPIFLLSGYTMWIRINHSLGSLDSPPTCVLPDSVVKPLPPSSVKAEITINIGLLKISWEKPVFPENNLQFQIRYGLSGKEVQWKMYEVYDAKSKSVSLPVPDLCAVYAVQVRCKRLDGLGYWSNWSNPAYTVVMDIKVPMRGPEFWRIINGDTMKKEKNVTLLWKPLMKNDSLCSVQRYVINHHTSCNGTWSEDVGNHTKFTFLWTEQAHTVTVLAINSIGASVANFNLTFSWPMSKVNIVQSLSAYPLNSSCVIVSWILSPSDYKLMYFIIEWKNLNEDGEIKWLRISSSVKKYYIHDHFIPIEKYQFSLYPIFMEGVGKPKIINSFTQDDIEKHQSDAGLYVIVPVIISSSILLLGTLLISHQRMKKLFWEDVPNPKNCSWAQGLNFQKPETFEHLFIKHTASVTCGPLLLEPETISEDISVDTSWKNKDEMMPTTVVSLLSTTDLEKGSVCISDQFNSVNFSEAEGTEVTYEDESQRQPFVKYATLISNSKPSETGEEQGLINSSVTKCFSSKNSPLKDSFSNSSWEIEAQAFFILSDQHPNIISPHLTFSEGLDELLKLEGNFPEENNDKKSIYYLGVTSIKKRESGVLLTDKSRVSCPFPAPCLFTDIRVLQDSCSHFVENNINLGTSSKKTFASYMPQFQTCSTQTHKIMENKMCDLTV

[2] = target: extracellular domain of Macaca fascicularis LEPR (amino acids 22-837 of XP_005543194.1, T827A) fused with the … (Macaca fascicularis; human); experiment: cell-based or functional assay
[3] = target: T2, extracellular domain of human LEPR (amino acids 22-839 of P48357, Isoform B) with N-terminal myc-myc tag, … (human, UniProt P48357 22-839, GPI anchor at the C-terminus); experiment: FACS, 70 nM Ab, HEK293/hLEPR-GPI, no Leptin
T2 construct: also called HEK293/Mycx2-hLepR(Ecto)-GPI anchored cells
T2 sequence: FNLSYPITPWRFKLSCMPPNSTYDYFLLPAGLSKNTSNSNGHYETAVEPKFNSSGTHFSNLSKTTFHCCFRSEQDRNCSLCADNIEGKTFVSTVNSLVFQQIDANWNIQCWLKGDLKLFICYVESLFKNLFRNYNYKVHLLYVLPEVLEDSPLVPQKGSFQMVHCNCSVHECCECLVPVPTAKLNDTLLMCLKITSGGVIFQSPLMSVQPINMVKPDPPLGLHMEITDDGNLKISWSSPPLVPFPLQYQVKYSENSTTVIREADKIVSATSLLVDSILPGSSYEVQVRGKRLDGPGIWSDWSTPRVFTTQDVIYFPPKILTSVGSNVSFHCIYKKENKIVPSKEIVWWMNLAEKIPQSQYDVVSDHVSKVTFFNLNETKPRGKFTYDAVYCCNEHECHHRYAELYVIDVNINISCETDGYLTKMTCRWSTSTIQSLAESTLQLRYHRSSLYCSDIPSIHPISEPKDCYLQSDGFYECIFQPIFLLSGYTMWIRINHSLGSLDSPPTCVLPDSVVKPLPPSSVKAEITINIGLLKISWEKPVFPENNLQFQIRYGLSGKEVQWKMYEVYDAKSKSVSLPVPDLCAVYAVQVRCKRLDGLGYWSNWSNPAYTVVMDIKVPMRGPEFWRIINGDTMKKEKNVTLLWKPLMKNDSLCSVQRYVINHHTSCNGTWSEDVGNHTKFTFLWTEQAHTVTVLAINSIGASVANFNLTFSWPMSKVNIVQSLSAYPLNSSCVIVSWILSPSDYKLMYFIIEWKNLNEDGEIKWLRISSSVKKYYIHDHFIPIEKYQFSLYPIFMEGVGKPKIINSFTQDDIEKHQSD

[4] = target: T3, extracellular domain portion of LEPR protein expressed with a C-terminal human Fc tag (hLEPR.hFc) (human); experiment: blocking ELISA, hLeptin coated
T3 construct: also called dimeric human LEPR
Method: These antibody-protein or protein-protein complexes were then incubated for 1.5 hour at room temperature (RT). […] Samples were developed with a TMB solution (BD Biosciences, #555214; substrate A and B mixed at 1:1 ratio as per manufacturer's instructions) to produce a colorimetric reaction and then neutralized with 1M sulfuric acid before measuring absorbance at 450 nm on a Victor X5 plate reader.
Data analysis was performed using a sigmoidal dose-response model within Prism™ software (GraphPad).

[5] = target: T2, extracellular domain of human LEPR …; experiment: FACS, 10 nM Ab, HEK293/hLEPR-GPI, no added Leptin
Method: For the FACS analysis, HEK293 parental cells and HEK293/hLEPR-GPI cells were dissociated and plated onto 96-well v-bottom plates at 5×10⁵ cells/well in PBS containing 2% FBS (FACS buffer). […] Cells were subsequently fixed using BD CytoFix™ (Becton Dickinson, #554655), filtered, and analyzed on a HyperCyt Flow Cytometer (Beckman Coulter). Unstained and secondary antibody alone controls were also tested for all cell lines. The results were analyzed using ForeCyt (IntelliCyt) and FlowJo version 10 software to determine the geometric means of fluorescence for viable cells. The geometric mean of fluorescence for each sample was then normalized to the geometric mean of unstained cells to obtain relative binding per condition referred to as “binding ratios”, and these binding ratios were recorded for each antibody tested.

B1: H4H16679P2 (antibody, V domains shown)
VH: QVQLVESGGGVVQPGRSLRLSCTASGFTFSSYAMYWVRQAPGKGLEWVSVIYYDGSYKYYADSVKGRFTISRDNSKNTLYLQMDSLRAEDTAVYYCASYNWNYWYFDFWGRGTLVTVSS
VL: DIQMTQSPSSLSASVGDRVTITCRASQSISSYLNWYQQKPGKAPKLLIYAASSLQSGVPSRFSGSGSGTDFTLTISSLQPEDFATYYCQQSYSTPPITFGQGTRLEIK
% activation; IMR-32/LEPR with 200 pM human Leptin [1]: 88%
% activation; IMR-32/LEPR without human Leptin [1]: 65%
EC50 (M); IMR-32/LEPR with 200 pM human Leptin [1]: 7.37e-11 M
EC50 (M); IMR-32/LEPR without human Leptin (STAT3-Luc reporter) [1]: 8.62e-11 M
EC50 (M); STAT3-Luc reporter, IMR-32/STAT3-Luc/MfLEPR cells [2]: 2.49e-10 M
Binding Ratio (normalized to unstained) [3]: 1080 fold
500 nM Ab Blocking of 10 nM hLEPR.hFc Binding to hLeptin (% blockade) [4]: 7%
Binding Ratio (normalized to unstained) [5]: 2060 fold
